From the Human Domainome abundance scans (Beltran et al. 2025)
± gives the uncertainty stated by the source.

B1: Kinesin-like protein KIF16B, residues 1213 to 1273; numbered along this chain, Q96L93 (parent)
chain: ETWTVFRRYSRFREMHKTLKLKYAELAALEFPPKKLFGNKDERVIAERRSHLEKYLRDFFS

Variants of: B1
Experiment: abundance fitness (aPCA) (normalised: wild type 0, dead -1); higher = more abundant; growth selection in yeast, the domain comes from the species named
Settings: Homo sapiens

Row | Variant | abundance fitness
1 | ETWTVFRRYSRFRDMHKTLKLKYAELAALEFPPKKLFGNKDERVIAERRSHLEKYLRDFFS [E14D] | -0.159 ± 0.18
2 | ETWTVFRRYSRFRFMHKTLKLKYAELAALEFPPKKLFGNKDERVIAERRSHLEKYLRDFFS [E14F] | -0.433 ± 0.22
3 | ETWTVFRRYSRFRQMHKTLKLKYAELAALEFPPKKLFGNKDERVIAERRSHLEKYLRDFFS [E14Q] | -0.534 ± 0.14
4 | ETWTVFRRYSRFRVMHKTLKLKYAELAALEFPPKKLFGNKDERVIAERRSHLEKYLRDFFS [E14V] | -0.299 ± 0.066
5 | ETWTVFRRYSRFRPMHKTLKLKYAELAALEFPPKKLFGNKDERVIAERRSHLEKYLRDFFS [E14P] | -0.589 ± 0.25
6 | ETWTVFRRYSRFRCMHKTLKLKYAELAALEFPPKKLFGNKDERVIAERRSHLEKYLRDFFS [E14C] | -0.319 ± 0.2
7 | ETWTVFRRYSRFRIMHKTLKLKYAELAALEFPPKKLFGNKDERVIAERRSHLEKYLRDFFS [E14I] | -0.867 ± 0.22
8 | ETWTVFRRYSRFRMMHKTLKLKYAELAALEFPPKKLFGNKDERVIAERRSHLEKYLRDFFS [E14M] | -0.41 ± 0.092
9 | ETWTVFRRYSRFRHMHKTLKLKYAELAALEFPPKKLFGNKDERVIAERRSHLEKYLRDFFS [E14H] | 0.13 ± 0.19
10 | ETWTVFRRYSRFRAMHKTLKLKYAELAALEFPPKKLFGNKDERVIAERRSHLEKYLRDFFS [E14A] | -0.318 ± 0.097
11 | ETWTVFRRYSRFRLMHKTLKLKYAELAALEFPPKKLFGNKDERVIAERRSHLEKYLRDFFS [E14L] | -0.429 ± 0.07
12 | ETWTVFRRYSRFRTMHKTLKLKYAELAALEFPPKKLFGNKDERVIAERRSHLEKYLRDFFS [E14T] | -0.597 ± 0.22
13 | ETWTVFRRYSRFRWMHKTLKLKYAELAALEFPPKKLFGNKDERVIAERRSHLEKYLRDFFS [E14W] | -0.69 ± 0.094
14 | ETWTVFRRYSRFRSMHKTLKLKYAELAALEFPPKKLFGNKDERVIAERRSHLEKYLRDFFS [E14S] | -0.229 ± 0.064
15 | ETWTVFRRYSRFRNMHKTLKLKYAELAALEFPPKKLFGNKDERVIAERRSHLEKYLRDFFS [E14N] | -0.556 ± 0.15
16 | ETWTVFRRYSRFRGMHKTLKLKYAELAALEFPPKKLFGNKDERVIAERRSHLEKYLRDFFS [E14G] | -0.183 ± 0.063
17 | ETWTVFRRYSRWREMHKTLKLKYAELAALEFPPKKLFGNKDERVIAERRSHLEKYLRDFFS [F12W] | 0.017 ± 0.075
18 | ETWTVFRRYSRSREMHKTLKLKYAELAALEFPPKKLFGNKDERVIAERRSHLEKYLRDFFS [F12S] | -0.642 ± 0.11
19 | ETWTVFRRYSRTREMHKTLKLKYAELAALEFPPKKLFGNKDERVIAERRSHLEKYLRDFFS [F12T] | -0.907 ± 0.45
20 | ETWTVFRRYSRYREMHKTLKLKYAELAALEFPPKKLFGNKDERVIAERRSHLEKYLRDFFS [F12Y] | -0.469 ± 0.17
21 | ETWTVFRRYSRVREMHKTLKLKYAELAALEFPPKKLFGNKDERVIAERRSHLEKYLRDFFS [F12V] | 0.047 ± 0.067
22 | ETWTVFRRYSRRREMHKTLKLKYAELAALEFPPKKLFGNKDERVIAERRSHLEKYLRDFFS [F12R] | -0.921 ± 0.13

Row | Variant | abundance fitness
23 | ETWTVFRRYSRMREMHKTLKLKYAELAALEFPPKKLFGNKDERVIAERRSHLEKYLRDFFS [F12M] | -0.103 ± 0.14
24 | ETWTVFRRYSRFREMHYTLKLKYAELAALEFPPKKLFGNKDERVIAERRSHLEKYLRDFFS [K17Y] | -0.607 ± 0.13
25 | ETWTVFRRYSRFREMHETLKLKYAELAALEFPPKKLFGNKDERVIAERRSHLEKYLRDFFS [K17E] | -0.311 ± 0.095
26 | ETWTVFRRYSRFREMHWTLKLKYAELAALEFPPKKLFGNKDERVIAERRSHLEKYLRDFFS [K17W] | -0.783 ± 0.29
27 | ETWTVFRRYSRFREMHMTLKLKYAELAALEFPPKKLFGNKDERVIAERRSHLEKYLRDFFS [K17M] | -0.343 ± 0.1
28 | ETWTVFRRYSRFREMHLTLKLKYAELAALEFPPKKLFGNKDERVIAERRSHLEKYLRDFFS [K17L] | -1 ± 0.22
29 | ETWTVFRRYSRFREMHQTLKLKYAELAALEFPPKKLFGNKDERVIAERRSHLEKYLRDFFS [K17Q] | -0.452 ± 0.12
30 | ETWTVFRRYSRFREMHVTLKLKYAELAALEFPPKKLFGNKDERVIAERRSHLEKYLRDFFS [K17V] | -0.225 ± 0.13
31 | ETWTVFRRYSRFREMHRTLKLKYAELAALEFPPKKLFGNKDERVIAERRSHLEKYLRDFFS [K17R] | -0.199 ± 0.057
32 | ETWTVFRRYSRFREMHFTLKLKYAELAALEFPPKKLFGNKDERVIAERRSHLEKYLRDFFS [K17F] | -0.685 ± 0.27
33 | ETWTVFRRYSRFREMHATLKLKYAELAALEFPPKKLFGNKDERVIAERRSHLEKYLRDFFS [K17A] | -0.325 ± 0.13
34 | ETWTVFRRYSRFREMHCTLKLKYAELAALEFPPKKLFGNKDERVIAERRSHLEKYLRDFFS [K17C] | -0.483 ± 0.16
35 | ETWTVFRRYSRFREMHTTLKLKYAELAALEFPPKKLFGNKDERVIAERRSHLEKYLRDFFS [K17T] | -0.489 ± 0.14
36 | ETWTVFRRYSRFREMIKTLKLKYAELAALEFPPKKLFGNKDERVIAERRSHLEKYLRDFFS [H16I] | 0.452 ± 0.11
37 | ETWTVFRRYSRFREMEKTLKLKYAELAALEFPPKKLFGNKDERVIAERRSHLEKYLRDFFS [H16E] | -0.842 ± 0.27
38 | ETWTVFRRYSRFREMCKTLKLKYAELAALEFPPKKLFGNKDERVIAERRSHLEKYLRDFFS [H16C] | 0.016 ± 0.12
39 | ETWTVFRRYSRFREMDKTLKLKYAELAALEFPPKKLFGNKDERVIAERRSHLEKYLRDFFS [H16D] | -0.835 ± 0.18
40 | ETWTVFRRYSRFREMVKTLKLKYAELAALEFPPKKLFGNKDERVIAERRSHLEKYLRDFFS [H16V] | 0.342 ± 0.053
41 | ETWTVFRRYSRFREMYKTLKLKYAELAALEFPPKKLFGNKDERVIAERRSHLEKYLRDFFS [H16Y] | 0.167 ± 0.089
42 | ETWTVFRRYSRFREMMKTLKLKYAELAALEFPPKKLFGNKDERVIAERRSHLEKYLRDFFS [H16M] | 0.311 ± 0.061
43 | ETWTVFRRYSRFREMTKTLKLKYAELAALEFPPKKLFGNKDERVIAERRSHLEKYLRDFFS [H16T] | 0.144 ± 0.058
